{
  "source": "paper PMC2408616",
  "about": "“Modular Organization and Combinatorial Energetics of Proline–Tyrosine Nuclear Localization Signals” (PLoS Biology, 2008)",
  "parents": {"B1": {"name": "MBP–Nab2p NLS [S. cerevisiae] / Kap104p [yeast (S. cerevisiae)] (parent complex)", "chain 1": "DNSQRFTQRGGGAVGKNRRGGRGGNRGGRNNNSTRFNPLAKALGMAGESNM", "chain 2": "MASTWKPAEDYVLQLATLLQNCMSPNPEIRNNAMEAMENFQLQPEFLNYLCYILIEGESDDVLKQHYSLQDLQNNRATAGMLLKNSMLGGNNLIKSNSHDLGYVKSNIIHGLYNSNNNLVSNVTGIVITTLFSTYYRQHRDDPTGLQMLYQLLELTSNGNEPSIKALSKIMEDSAQFFQLEWSGNTKPMEALLDSFFRFISNPNFSPVIRSESVKCINTVIPLQTQSFIVRLDKFLEIIFQLAQNDENDLVRAQICISFSFLLEFRPDKLVSHLDGIVQFMLHLITTVNEEKVAIEACEFLHAFATSPNIPEHILQPYVKDIVPILLSKMVYNEESIVLLEASNDDDAFLEDKDEDIKPIAPRIVKKKEAGNGEDADDNEDDDDDDDDEDGDVDTQWNLRKCSAATLDVMTNILPHQVMDIAFPFLREHLGSDRWFIREATILALGAMAEGGMKYFNDGLPALIPFLVEQLNDKWAPVRKMTCWTLSRFSPWILQDHTEFLIPVLEPIINTLMDKKKDVQEAAISSVAVFIENADSELVETLFYSQLLTSFDKCLKYYKKKNLIILYDAIGRFAEKCALDETAMQIILPPLIEKWALLSDSDKELWPLLECLSCVASSLGERFMPMAPEVYNRAFRILCHCVELEAKSHQDPTIVVPEKDFIITSLDLIDGLVQGLGAHSQDLLFPQGTKDLTILKIMLECLQDPVHEVRQSCFALLGDIVYFFNSELVIGNLEDFLKLIGTEIMHNDDSDGTPAVINAIWALGLISERIDLNTYIIDMSRIILDLFTTNTQIVDSSVMENLSVTIGKMGLTHPEVFSSGAFANDSNWNKWCLSVNALDDVEEKSSAYMGFLKIINLTSTEVTMSNDTIHKIVTGLSSNVEANVFAQEIYTFLMNHSAQISAINFTPDEISFLQQFTS"}, "B2": {"name": "MBP–Hrp1p NLS [S. cerevisiae] / Kap104p [yeast (S. cerevisiae)] (parent complex)", "chain 1": "RDRNDRDRDYNHRSGGNHRRNGRGGRGGYNRRNNGYHPYNR", "chain 2": "B1 chain 2"}},
  "data": [
    {"variants_of": "B1", "assay": "ITC; parent: 37 nM", "units": {"Kd": "nM"}, "values": [
      {"variant": "chain 1 R35H", "Kd": 63},
      {"variant": "chain 1 R18K, chain 1 R19K, chain 1 R22K, chain 1 R26K, chain 1 R29K", "Kd": 21},
      {"variant": "chain 1 F36L", "Kd": 66},
      {"variant": "chain 1 F36A", "Kd": 296}
    ]},
    {"variants_of": "B2", "assay": "ITC; parent: -10.1", "units": {"dG": "kcal/mol"}, "values": [
      {"variant": "chain 1 R31A", "dG": -10},
      {"variant": "chain 1 R32A", "dG": -10.5},
      {"variant": "chain 1 R19K, chain 1 R20K, chain 1 R23K, chain 1 R26K", "dG": -10},
      {"variant": "chain 1 Y36L", "dG": -10},
      {"variant": "chain 1 R19A, chain 1 Y36A", "dG": -9.7}
    ]}
  ]
}
